Results published in patent publication US11932673B2, “Sodium channel inhibitors” (priority 2017, dated 2024).

What was measured:
huASIC1a = biological target: T1, huASIC1a (Homo sapiens, UniProt P78348); test: QPatch automated whole-cell patch-clamp on HEK293 cells stably expressing huASIC1a; assay type: cell-based; conditions: pH 6.0 activation after 15-20 min pre-incubation; concentration μM: KB_A07_PcTx1 6.6, KB_A12_PcTx1 5, KB_A12_Mba-1 3, KB_A12_Mba-2 2.3, KB_A07 6, KB_A12 3.3
T1 sequence (P78348 whole entry, looked up): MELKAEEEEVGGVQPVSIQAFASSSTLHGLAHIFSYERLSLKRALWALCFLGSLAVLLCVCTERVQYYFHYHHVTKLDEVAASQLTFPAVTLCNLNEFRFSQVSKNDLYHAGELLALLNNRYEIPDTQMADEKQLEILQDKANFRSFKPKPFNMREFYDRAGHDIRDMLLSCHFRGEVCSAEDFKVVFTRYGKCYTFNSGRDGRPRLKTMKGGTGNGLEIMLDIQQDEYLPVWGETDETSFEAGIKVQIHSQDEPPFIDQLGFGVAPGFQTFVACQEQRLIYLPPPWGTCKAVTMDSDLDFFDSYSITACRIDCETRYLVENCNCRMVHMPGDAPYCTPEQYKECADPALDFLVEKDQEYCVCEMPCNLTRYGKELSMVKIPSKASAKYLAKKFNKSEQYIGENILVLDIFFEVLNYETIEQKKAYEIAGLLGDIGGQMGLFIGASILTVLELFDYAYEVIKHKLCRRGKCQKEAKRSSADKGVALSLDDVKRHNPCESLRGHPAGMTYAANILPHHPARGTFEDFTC
Protocol: Knottin Kv 1.3 and ASIC1a blockers expressed in the KnotBody format (see examples 6 and 7) were tested for their ability to inhibit the function of the ion channel targets. The effect of these KnotBodies on cells expressing the human Kv 1.3 (huKv1.3) or human ASIC1a channels was assessed using QPatch automated whole-cell patch-clamp electrophysiology (Sophion).
To functionally assess the ASIC1a KnotBodies, HEK293 cells stably expressing huASIC1a (Sophion) were analysed using a QPatch electrophysiology assay in the presence or absence of the KnotBody fusions (using KB_A12 as a recipient and replacing the original EETI-II donor as shown in Table 8). The “parental” KB_A12 with the EETI-II donor was used as a negative control. Internal and external physiological solutions were freshly prepared prior to the assay. […]
At the end of each KnotBody incubation and subsequent ASIC1a current activation, a full blocking concentration (300 nM) of the ASIC1a knottin inhibitor PcTx1 (positive control) was perfused onto the cell recording and a final activating pH 6.0 external solution was applied. The percentage remaining signal between activating pH 6.0 baseline (i.e. pre-KnotBody) and post-KnotBody incubation was determined.

LOX-1 = LOX-1 (Homo sapiens, UniProt P78380); test: Phage TRF binding assay of adhiron-antibody fusions on LOX-1; conditions: monoclonal phage; LOX-1 directly immobilised; non-specific binding checked on cMET-FC, GAS6-CD4, FGFR4-CD4, UPA, B-gal
Protocol: In order to test the functionality of these adhiron-antibody fusions, monoclonal phage prepared from each clone was assessed for binding to LOX-1 in a TRF binding assay. In this assay, LOX-1 (immobilised directly on Maxisorp™ plates) binding of phage displaying adhiron-antibody fusion was detected using a mouse anti-M13 antibody (GE Healthcare) followed by europium conjugated anti-mouse antibody (Perkin Elmer). Parent KnotBodies KB_A07 and KB_A12 (EETI-II fusions) were included as controls. Proteins cMET-FC, GAS6-CD4, FGFR4-CD4, UPA and B-gal were used to examine non-specific binding.

trypsin [1] = test: TRF binding assay of purified KnotBody Fabs on biotinylated trypsin
trypsin [2] = test: Phage TRF binding assay of KnotBody phage on immobilised biotinylated trypsin
Protocol: Phage display technology facilitates isolation of binders to any given target from large combinatorial repertoires based on proteins and peptides that can be presented on the surface of filamentous phage^105. In order to isolate functional knottin-antibody fusions from the KnotBody libraries multiple rounds of phage display selections on trypsin (cognate antigen for the EETI-II donor) were carried out. Phage particles were prepared by rescuing KnotBody libraries using trypsin cleavable helper phage^102,106 Two rounds of phage display selections were performed on 10 μg/ml biotinylated trypsin immobilised on Streptavidin (for Round-1) or Neutravidin (for round-2) coated Maxisorp™ immunotubes (Thermo Scientific, Cat No. 444202). In both rounds of selection, phage libraries were pre-incubated with streptavidin coated paramagnetic beads (Thermo Fisher Scientific, Cat. No. 11205D). These beads were removed prior to the addition the phage to the antigen tubes to limit the streptavidin binders entering the selection. Polyclonal phage preparations from round-2 selection outputs were analysed for trypsin binding using a time resolved fluorescence (TRF) binding assay. In this assay, polyclonal phage binding to biotinylated trypsin immobilised on neutravidin (Thermo Fisher Scientific, Cat. No 31000) coated Maxisorp™ plates (Thermo Scientific, Cat. No. 437111) was detected using a mouse anti-M13 antibody (GE Healthcare, Cat. No. 27-9420-01) followed by europium conjugated anti-mouse antibody (Perkin Elmer, Cat. No. AD0124).
In order to identify monoclonal KnotBodies with desired binding characteristics, 94 individual clones derived from 2 rounds of selection using EETI-II CDR1 or CDR2 libraries were picked into 96 well culture plates and phage were prepared from each clone. Methods for screening by monoclonal phage ELISA are known in the art^107. […] Clones with >3× binding signal above background were picked as positive clones and sequenced to identify unique clones. 14 and 42 unique binders were identified from EETI-II CDR1 and EETI-II CDR2 libraries respectively (Table 1). 18 binders from the EETI-II CDR2 library and 3 binders from the EETI-II-CDR1 library were chosen for further characterisation based on their VL and linker sequence diversity. These binders were assigned new clone identification numbers (Table 2). […] In order to confirm that the loss of trypsin binding was not due to reduced expression or display of pIII fusion phage was prepared from 11 (randomly chosen) KnotBodies and their GlyAla variants were analysed on a western blot using an antibody which recognises the product of gene 3 (pIII) using an anti-pIII antibody (MoBiTec GmbH) (FIG. 6).

human Nav1.7 = human Nav1.7 (Homo sapiens, UniProt Q15858); test: QPatch patch-clamp on CHO cells stably expressing human Nav1.7, single application (Example 19); assay type: cell-based
Protocol: The effect of these KnotBodies on cells expressing human Nav1.7 (huNav1.7) channel was assessed using QPatch automated patch-clamp platform (Sophion). For the testing of Nav1.7 ion channel currents, CHO cells stably expressing human Nav1.7 (GenBank accession number NM 002977; cell line catalogue number CT6003, Charles River Discovery, Cleveland, USA) were subjected to the QPatch electrophysiology assay in the presence or absence of the KnotBody fusions or the antibody isotypes (negative controls). Internal and external physiological solutions were freshly prepared prior to the assay. The extracellular solution contained 145 mM NaCl, 4 mM KCl, 2 mM CaCl2, 1 mM MgCl2, 10 mM HEPES and 10 mM glucose; the pH was adjusted to 7.4 with NaOH; the osmolarity was ˜305 mOsm/L. The intracellular solution contained: KF (120 mM), KCl (20 mM), HEPES (10 mM) EGTA (10 mM); the pH was adjusted to 7.2 with KOH; osmolarity was ˜300 mOsm/L.
A series of depolarising voltage (channel activating) pulses were used to monitor the channel currents upon adding control (extracellular solution) to define a control baseline of current activity. To these measured control channel currents KnotBody or parental antibody isotypes (control molecules) were applied to the external bathing solution. The parental KnotBody KB_A12 (with trypsin inhibitor knottin EETI-II at CDR2) were used as test molecule isotype controls for the testing. […] The elicited, maximum outward current values measured during the −10 mV activating step for each solution period (a control, baseline level of current was determined at 10 minutes after application of the control external recording solution and a test level of current was determined after 20 minutes of application of KnotBody or its isotype) and average inhibition was determined between the current from the 10 minute baseline control current and the subsequent 20 minute KnotBody application. […] The average inhibition values (with external control reduction subtracted) for KnotBodies and isotypes was calculated.

Sequence of human Nav1.7 (Q15858 other isoform, or with tags, fused parts or gaps): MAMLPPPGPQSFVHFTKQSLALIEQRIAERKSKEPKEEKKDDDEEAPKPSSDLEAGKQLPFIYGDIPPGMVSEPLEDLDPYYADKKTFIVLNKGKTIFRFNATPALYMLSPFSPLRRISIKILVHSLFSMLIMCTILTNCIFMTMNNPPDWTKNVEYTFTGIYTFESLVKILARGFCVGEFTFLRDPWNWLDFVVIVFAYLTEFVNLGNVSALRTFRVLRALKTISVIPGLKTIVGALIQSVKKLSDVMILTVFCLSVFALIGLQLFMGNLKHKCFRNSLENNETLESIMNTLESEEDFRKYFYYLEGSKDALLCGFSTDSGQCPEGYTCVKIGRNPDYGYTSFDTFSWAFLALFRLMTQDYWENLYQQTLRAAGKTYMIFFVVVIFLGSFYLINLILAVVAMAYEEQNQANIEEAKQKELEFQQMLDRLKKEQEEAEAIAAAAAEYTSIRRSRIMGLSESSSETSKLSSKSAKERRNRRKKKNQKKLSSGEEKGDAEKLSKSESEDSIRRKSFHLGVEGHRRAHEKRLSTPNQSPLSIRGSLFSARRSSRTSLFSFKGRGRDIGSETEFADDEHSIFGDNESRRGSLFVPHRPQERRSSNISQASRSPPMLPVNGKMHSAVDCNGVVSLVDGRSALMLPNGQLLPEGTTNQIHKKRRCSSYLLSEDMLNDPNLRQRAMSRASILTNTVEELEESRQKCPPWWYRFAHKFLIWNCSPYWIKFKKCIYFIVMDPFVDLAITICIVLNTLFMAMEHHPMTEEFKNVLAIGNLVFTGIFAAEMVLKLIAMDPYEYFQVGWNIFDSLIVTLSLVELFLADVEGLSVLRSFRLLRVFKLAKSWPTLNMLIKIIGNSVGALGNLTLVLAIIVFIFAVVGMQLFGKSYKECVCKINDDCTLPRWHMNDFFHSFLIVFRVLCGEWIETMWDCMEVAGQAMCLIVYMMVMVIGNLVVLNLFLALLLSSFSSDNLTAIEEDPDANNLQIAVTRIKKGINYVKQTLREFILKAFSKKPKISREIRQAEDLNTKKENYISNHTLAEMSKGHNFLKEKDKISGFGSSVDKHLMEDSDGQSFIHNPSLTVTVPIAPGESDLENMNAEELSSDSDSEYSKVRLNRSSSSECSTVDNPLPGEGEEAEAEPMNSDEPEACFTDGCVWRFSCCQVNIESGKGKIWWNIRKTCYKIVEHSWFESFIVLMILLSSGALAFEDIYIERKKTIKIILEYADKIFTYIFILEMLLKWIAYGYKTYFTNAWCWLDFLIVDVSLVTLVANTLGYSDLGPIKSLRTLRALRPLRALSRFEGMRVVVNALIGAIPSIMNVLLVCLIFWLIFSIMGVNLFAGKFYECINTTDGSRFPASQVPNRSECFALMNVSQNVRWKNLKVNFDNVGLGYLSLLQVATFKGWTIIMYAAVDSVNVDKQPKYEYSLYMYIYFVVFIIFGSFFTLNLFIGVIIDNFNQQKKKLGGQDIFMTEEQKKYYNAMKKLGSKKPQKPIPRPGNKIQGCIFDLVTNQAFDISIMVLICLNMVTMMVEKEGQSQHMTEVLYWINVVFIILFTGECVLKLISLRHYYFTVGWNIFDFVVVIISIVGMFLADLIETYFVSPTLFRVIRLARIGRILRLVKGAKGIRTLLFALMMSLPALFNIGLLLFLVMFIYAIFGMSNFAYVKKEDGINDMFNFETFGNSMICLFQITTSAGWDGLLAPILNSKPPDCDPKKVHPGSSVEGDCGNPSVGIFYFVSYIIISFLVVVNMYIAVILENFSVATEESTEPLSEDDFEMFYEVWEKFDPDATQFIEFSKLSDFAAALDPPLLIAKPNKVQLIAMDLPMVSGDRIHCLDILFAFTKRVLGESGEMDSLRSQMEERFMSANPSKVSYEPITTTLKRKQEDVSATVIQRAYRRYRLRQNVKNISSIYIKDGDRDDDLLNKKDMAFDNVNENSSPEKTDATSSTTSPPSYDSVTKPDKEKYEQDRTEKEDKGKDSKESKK

B1: KB_A07: EETI-II VL CDR2 KnotBody, D1A12 VH, VL SEQ ID NO: 136/372; parental/isotype control (antibody, V domains shown)
VH: EVQLVESGGGLVRPGGSLRLSCAASGFTFSSYAMSWVRQAPGKGLEWVSAISGSGGSTYYADSVKGRFTISRDNTKNSLYLQMTSLRADDTAFYYCVKDFGPGYGTGWFDYWGPGTLVTVSS
VL: DIQMTQSPSSLSASVGDRVTITCRASQSISSYLNWYQQKPGKAPKLLIYAAGVCPRILMRCKQDSDCLAGCVCGPNGFCGSRSGVPSRFSGSGSGTDFTLTISSLQPEDFATYYCQQGASPPYTFGQGTKVEIKR
- % current remaining (huASIC1a): 70.9%
- binding to LOX-1 (LOX-1): no detectable binding to the LOX-1
- TRF signal for 0.6 ug/mL Fab (trypsin [1]; KnotBody Fab 0.6 ug/mL, background (no Fab) 431): 107814
- TRF signal for 2.4 ug/mL Fab (trypsin [1]; KnotBody Fab 2.4 ug/mL, background (no Fab) 406): 201003
- TRF signal for 10 ug/mL Fab (trypsin [1]; KnotBody Fab 10 ug/mL, background (no Fab) 420): 226082
- % reduction in binding signal (trypsin [2]; […], monoclonal phage, streptavidin coated plates): 98%
- Tryspin binding signal (FU) (trypsin [2]; monoclonal phage supernatant, biotinylated trypsin on neutravidin coated plates, TRF): 21448 FU

B2: KB_A12_ProTx-III 2M Gly: ProTx-III 2M Gly in VL CDR2 of KB_A12, IgG; Nav1.7 KnotBody (antibody, V domains shown)
VH: EVQLVESGGGLVRPGGSLRLSCAASGFTFSSYAMSWVRQAPGKGLEWVSAISGSGGSTYYADSVKGRFTISRDNTKNSLYLQMTSLRADDTAFYYCVKDFGPGYGTGWFDYWGPGTLVTVSS
VL: QSVLTQPPSVSEAPRQRVTITCSGSSSNIGNNAVNWYQQLPGKAPKLLIYAAGRGCLKFGWKCNPRNDKCCSGLKCGSNHNWCKWHIGANSGVSDRFSAAKSGTSASLAINGLRSEDEADYYCAAWDDSLNGYVFGTGTKLTVLG
- Mean % inhibition of Nav1.7 currents (human Nav1.7; concentration tested 15.4 μM): 63.5%

B3: KB_A12_ProTx-III Gly (antibody, V domains shown)
VH: EVQLVESGGGLVRPGGSLRLSCAASGFTFSSYAMSWVRQAPGKGLEWVSAISGSGGSTYYADSVKGRFTISRDNTKNSLYLQMTSLRADDTAFYYCVKDFGPGYGTGWFDYWGPGTLVTVSS
VL: QSVLTQPPSVSEAPRQRVTITCSGSSSNIGNNAVNWYQQLPGKAPKLLIYAAGRDCLKFGWKCNPRNDKCCSGLKCGSNHNWCKLHIGANSGVSDRFSAAKSGTSASLAINGLRSEDEADYYCAAWDDSLNGYVFGTGTKLTVLG
- Mean % inhibition of Nav1.7 currents (human Nav1.7; concentration tested 22.3 μM): 26.6%
